The values below come from article PMC12808100, “The non-catalytic DNA polymerase ε subunit is an NPF motif recognition protein” (Nature Communications, 2025).

The labels stand for the following.
B1: ASPA (protein, UniProt P45381 1-313, looked up)
Aspartoacylase: MTSCHIAEEHIQKVAIFGGTHGNELTGVFLVKHWLENGAEIQRTGLEVKPFITNPRAVKKCTRYIDCDLNRIFDLENLGKKMSEDLPYEVRRAQEINHLFGPKDSEDSYDIIFDLHNTTSNMGCTLILEDSRNNFLIQMFHYIKTSLAPLPCYVYLIEHPSLKYATTRSIAKYPVGIEVGPQPQGVLRADILDQMRKMIKHALDFIHHFNEGKEFPPCAIEVYKIIEKVDYPRDENGEIAAIIHPNLQDQDWKPLHPGDPMFLTLDGKTIPLGGDCTVYPVFVNEAAYYEKKEAFAKTTKLTLNAKSIRCCLH
B2: ATAD3A (protein, UniProt Q9NVI7 2-586, looked up)
ATPase family AAA …: SWLFGINKGPKGEGAGPPPPLPPAQPGAEGGGDRGLGDRPAPKDKWSNFDPTGLERAAKAARELEHSRYAKDALNLAQMQEQTLQLEQQSKLKEYEAAVEQLKSEQIRAQAEERRKTLSEETRQHQARAQYQDKLARQRYEDQLKQQQLLNEENLRKQEESVQKQEAMRRATVEREMELRHKNEMLRVEAEARARAKAERENADIIREQIRLKAAEHRQTVLESIRTAGTLFGEGFRAFVTDWDKVTATVAGLTLLAVGVYSAKNATLVAGRFIEARLGKPSLVRETSRITVLEALRHPIQVSRRLLSRPQDALEGVVLSPSLEARVRDIAIATRNTKKNRSLYRNILMYGPPGTGKTLFAKKLALHSGMDYAIMTGGDVAPMGREGVTAMHKLFDWANTSRRGLLLFVDEADAFLRKRATEKISEDLRATLNAFLYRTGQHSNKFMLVLASNQPEQFDWAINDRINEMVHFDLPGQEERERLVRMYFDKYVLKPATEGKQRLKLAQFDYGRKCSEVARLTEGMSGREIAQLAVSWQATAYASEDGVLTEAMMDTRVQDAVQQHQQKMCWLKAEGPGRGDEPSPS
B3: PYGB (protein, UniProt P11216 2-843, looked up)
Glycogen phosphorylase, brain …: AKPLTDSEKRKQISVRGLAGLGDVAEVRKSFNRHLHFTLVKDRNVATPRDYFFALAHTVRDHLVGRWIRTQQHYYERDPKRIYYLSLEFYMGRTLQNTMVNLGLQNACDEAIYQLGLDLEELEEIEEDAGLGNGGLGRLAACFLDSMATLGLAAYGYGIRYEFGIFNQKIVNGWQVEEADDWLRYGNPWEKARPEYMLPVHFYGRVEHTPDGVKWLDTQVVLAMPYDTPVPGYKNNTVNTMRLWSAKAPNDFKLQDFNVGDYIEAVLDRNLAENISRVLYPNDNFFEGKELRLKQEYFVVAATLQDIIRRFKSSKFGCRDPVRTCFETFPDKVAIQLNDTHPALSIPELMRILVDVEKVDWDKAWEITKKTCAYTNHTVLPEALERWPVSMFEKLLPRHLEIIYAINQRHLDHVAALFPGDVDRLRRMSVIEEGDCKRINMAHLCVIGSHAVNGVARIHSEIVKQSVFKDFYELEPEKFQNKTNGITPRRWLLLCNPGLADTIVEKIGEEFLTDLSQLKKLLPLVSDEVFIRDVAKVKQENKLKFSAFLEKEYKVKINPSSMFDVHVKRIHEYKRQLLNCLHVVTLYNRIKRDPAKAFVPRTVMIGGKAAPGYHMAKLIIKLVTSIGDVVNHDPVVGDRLKVIFLENYRVSLAEKVIPAADLSQQISTAGTEASGTGNMKFMLNGALTIGTMDGANVEMAEEAGAENLFIFGLRVEDVEALDRKGYNAREYYDHLPELKQAVDQISSGFFSPKEPDCFKDIVNMLMHHDRFKVFADYEAYMQCQAQVDQLYRNPKEWTKKVIRNIACSGKFSSDRTITEYAREIWGVEPSDLQIPPPNIPRD
B4: SEC14L4 (protein, UniProt Q9UDX3 1-406, looked up)
SEC14-like protein 4: MSSRVGDLSPQQQEALARFRENLQDLLPILPNADDYFLLRWLRARNFDLQKSEDMLRRHMEFRKQQDLDNIVTWQPPEVIQLYDSGGLCGYDYEGCPVYFNIIGSLDPKGLLLSASKQDMIRKRIKVCELLLHECELQTQKLGRKIEMALMVFDMEGLSLKHLWKPAVEVYQQFFSILEANYPETLKNLIVIRAPKLFPVAFNLVKSFMSEETRRKIVILGDNWKQELTKFISPDQLPVEFGGTMTDPDGNPKCLTKINYGGEVPKSYYLCEQVRLQYEHTRSVGRGSSLQVENEILFPGCVLRWQFASDGGDIGFGVFLKTKMGEQQSAREMTEVLPSQRYNAHMVPEDGSLTCLQAGVYVLRFDNTYSRMHAKKLSYTVEVLLPDKASEETLQSLKAMRPSPTQ
B5: URM1 (protein, UniProt Q9BTM9 1-101, looked up)
Ubiquitin-related modifier 1: MAAPLSVEVEFGGGAELLFDGIKKHRVTLPGQEEPWDIRNLLIWIKKNLLKERPELFIQGDSVRPGILVLINDADWELLGELDYQLQDQDSVLFISTLHGG
B6: NUP35 (protein, UniProt Q8NFH5 1-326, looked up)
Nucleoporin NUP35: MAAFAVEPQGPALGSEPMMLGSPTSPKPGVNAQFLPGFLMGDLPAPVTPQPRSISGPSVGVMEMRSPLLAGGSPPQPVVPAHKDKSGAPPVRSIYDDISSPGLGSTPLTSRRQPNISVMQSPLVGVTSTPGTGQSMFSPASIGQPRKTTLSPAQLDPFYTQGDSLTSEDHLDDSWVTVFGFPQASASYILLQFAQYGNILKHVMSNTGNWMHIRYQSKLQARKALSKDGRIFGESIMIGVKPCIDKSVMESSDRCALSSPSLAFTPPIKTLGTPTQPGSTPRISTMRPLATAYKASTSDYQVISDRQTPKKDESLVSKAMEYMFGW
B7: IVD (protein, UniProt P26440 33-426, looked up)
Isovaleryl-CoA dehydrogenase, …: HSLLPVDDAINGLSEEQRQLRQTMAKFLQEHLAPKAQEIDRSNEFKNLREFWKQLGNLGVLGITAPVQYGGSGLGYLEHVLVMEEISRASGAVGLSYGAHSNLCINQLVRNGNEAQKEKYLPKLISGEYIGALAMSEPNAGSDVVSMKLKAEKKGNHYILNGNKFWITNGPDADVLIVYAKTDLAAVPASRGITAFIVEKGMPGFSTSKKLDKLGMRGSNTCELIFEDCKIPAANILGHENKGVYVLMSGLDLERLVLAGGPLGLMQAVLDHTIPYLHVREAFGQKIGHFQLMQGKMADMYTRLMACRQYVYNVAKACDEGHCTAKDCAGVILYSAECATQVALDGIQCFGGNGYINDFPMGRFLRDAKLYEIGAGTSEVRRLVIGRAFNADFH

For this assay, the target named is His6-avi-MBP-tagged POLE2. Put plainly: Single-point nHU-MS with recombinant His6-avi-MBP-POLE2 bait, Jurkat extract. The following applies: significant apparent affinity of endogenous prey protein for POLE2 bait; single-point nHU-MS; Figure S11. It is filed as binding, human. The source says:
So far, our study only focused on a few hand-picked NPF motifs and studied them as short synthetic peptides. However, many other proteins may be present in the proteome that could bind to POLE2 and their putative NPF motifs are embedded in their natural structures that can greatly affect their binding properties. To investigate interactions between POLE2 and intact, full length proteins proteome-wide, we used nHU-MS experiments with recombinant His6-avi-MBP-tagged POLE2 as bait and purified His6-avi-MBP as a control. Even though we are aware that this recombinant POLE2 may bind to NPF motifs with a somewhat altered affinity, we assumed that this would affect all NPF motif-mediated interactions equally, allowing an unbiased affinity ranking of all identified partners. Single point nHU measurements were performed at 26 μM POLE2 concentration and the recovered supernatant was measured by label free proteomic MS measurements (Fig. 3A, Supplementary Figs. 8A, 9, Supplementary Data 1).
Single-point nHU experiments with protein baits were carried out nearly identically with two key modifications. First, the resin saturation step was carried out by mixing 50 μl streptavidin resin with 0.5−1 ml 50 μM biotinylated protein solution and the mixture was incubated for 1.5 h at 4 °C with constant agitation. Second, instead of using estimated bait concentrations, we measured it experimentally. An extra aliquot of resin stock was prepared alongside the nHU samples that were identically processed that were used to eluate the immobilized proteins under harsh conditions, in order to experimentally quantify the Cbait by using densitometry of Coomassie stained SDS-PAGE that included a protein calibration series. For this, 50 μl bait-saturated resin aliquots were mixed with 200 μl 4x Laemmli Sample Buffer (120 mM Tris-HCl pH 7, 8% SDS, 100 mM DTT, 32% glycerol, 0.004% bromphenol blue, 1% β-mercaptoethanol), instead of cell extract. After 15 min incubation at 95 °C, these samples were analyzed by SDS-PAGE using protein calibration standard, made from recombinant MBP. Densitometry was carried out after Coomassie staining on raw Tif images by using Fiji ImageJ 1.53c and experimental bait concentration were determined by adjusting for molecular weight differences between MBP and MBP-POLE2 constructs.
Samples were digested overnight at 37 °C.
Consider B1, for which the pKapp_sign worked out at 5.902. The result for B2 reads 4.126; that for B3, 4.228; that for B4, 5.194. B5: the pKapp_sign stood at 4.219.

As for B6, the pKapp_sign was found to be 4.141. The result for B7 reads 4.276.
